The values that follow come from the supplement of paper PMC9112550, “Optimization of the antimicrobial peptide Bac7 by deep mutational scanning” (BMC Biology, 2022).
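Further: peptides expressed intracellularly from a pBAD plasmid library in pooled LB shake-flask culture, induced with 0.3% L-arabinose, DNA abundance read by NGS, three biological replicates, DESeq2 with apeglm shrinkage.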

This data set has as its system Escherichia coli TOP10. Put plainly: shrunken log2 fold change of peptide-encoding DNA abundance (4.5 h post-induction vs induction); higher = less antimicrobial activity (less host growth inhibition). The following applies: time post-induction: 4.5 h; library: site-saturation at positions 5, 18, 19, 20.
With RRIRKRPPRLPRPRPRPLHFPRP, the “shrunken log2 fold change” value was -0.258.
Turning to RRIRMRPPRLPRPRPRPHNRPRP, the “shrunken log2 fold change” value was -0.172.
The result for RRIRERPPRLPRPRPRPPYDPRP reads -1.12; that for RRIRKRPPRLPRPRPRPRLGPRP, 0.587.
The result for RRIRARPPRLPRPRPRPALGPRP reads 0.73.
Regarding RRIRNRPPRLPRPRPRPYDIPRP, the “shrunken log2 fold change” value is -0.0698.
The result for RRIRWRPPRLPRPRPRPLHKPRP reads 0.0164; that for RRIRSRPPRLPRPRPRPHEFPRP, -0.315.
Turning to RRIRSRPPRLPRPRPRPLEQPRP, the “shrunken log2 fold change” value came to 0.0284.
Regarding RRIRQRPPRLPRPRPRPLKWPRP, the “shrunken log2 fold change” value came to 0.0646.
The result for RRIRFRPPRLPRPRPRPGLRPRP reads 0.23; that for RRIRDRPPRLPRPRPRPIPWPRP, 0.077; that for RRIRVRPPRLPRPRPRPKNTPRP, -0.347.
The result for RRIRVRPPRLPRPRPRPTLHPRP reads 0.195; that for RRIRKRPPRLPRPRPRPFQFPRP, -0.018.
In the case of RRIRCRPPRLPRPRPRPRQKPRP, the “shrunken log2 fold change” value was 0.466.
Take RRIRVRPPRLPRPRPRPYCIPRP: the “shrunken log2 fold change” value is -0.27.
Regarding RRIRIRPPRLPRPRPRPGDYPRP, the “shrunken log2 fold change” value was -0.0189.
To RRIRNRPPRLPRPRPRPSMMPRP belongs -0.589; to RRIRSRPPRLPRPRPRPPVQPRP, 0.319.
As for RRIRDRPPRLPRPRPRPRTWPRP, the “shrunken log2 fold change” value came out at 0.0224.
Regarding RRIRYRPPRLPRPRPRPNVVPRP, the “shrunken log2 fold change” value is -0.274.
To RRIRRRPPRLPRPRPRPTIYPRP belongs -0.1.
The result for RRIRSRPPRLPRPRPRPCLHPRP reads -0.0514.
For RRIRERPPRLPRPRPRPGNPPRP, the “shrunken log2 fold change” value amounted to 0.00298.
As to RRIRSRPPRLPRPRPRPQPFPRP, the “shrunken log2 fold change” value was -0.0168.
On to RRIRPRPPRLPRPRPRPGGFPRP, for which the “shrunken log2 fold change” value came to 0.318.
Regarding RRIRRRPPRLPRPRPRPLCKPRP, the “shrunken log2 fold change” value was determined as 0.167.
On to RRIRMRPPRLPRPRPRPKRMPRP, for which the “shrunken log2 fold change” value turned out to be 1.06.
For the sequence RRIRARPPRLPRPRPRPDNRPRP, the “shrunken log2 fold change” value was 0.0425.
The result for RRIRCRPPRLPRPRPRPMRDPRP reads 0.281.
As to RRIRWRPPRLPRPRPRPMTEPRP, the “shrunken log2 fold change” value turned out to be 0.804.
The result for RRIRGRPPRLPRPRPRPPWFPRP reads 0.772; that for RRIRMRPPRLPRPRPRPEVCPRP, 0.0476; that for RRIRVRPPRLPRPRPRPQMMPRP, -0.0693.
The result for RRIRIRPPRLPRPRPRPVTQPRP reads -0.0794; that for RRIRWRPPRLPRPRPRPNRMPRP, 0.126; that for RRIRSRPPRLPRPRPRPIANPRP, -0.0897.
On to RRIRWRPPRLPRPRPRPQVPPRP, for which the “shrunken log2 fold change” value is -0.211.
The result for RRIRRRPPRLPRPRPRPEIHPRP reads -0.265.
Consider RRIRCRPPRLPRPRPRPCVHPRP, for which the “shrunken log2 fold change” value was -0.0561.
To RRIRWRPPRLPRPRPRPDREPRP belongs -0.0009; to RRIRCRPPRLPRPRPRPDVDPRP, 0.0251; to RRIRPRPPRLPRPRPRPTVWPRP, 0.747.
With RRIRNRPPRLPRPRPRPTNGPRP, the “shrunken log2 fold change” value was -0.0138.
RRIRTRPPRLPRPRPRPAPRPRP: the “shrunken log2 fold change” value is 1.39.
On to RRIRHRPPRLPRPRPRPYQPPRP, for which the “shrunken log2 fold change” value is -0.216.
To RRIRVRPPRLPRPRPRPHVNPRP belongs -0.554; to RRIRERPPRLPRPRPRPTAFPRP, -0.16; to RRIRWRPPRLPRPRPRPSATPRP, 0.985.
The result for RRIRDRPPRLPRPRPRPYCFPRP reads -0.744; that for RRIRMRPPRLPRPRPRPCWPPRP, 0.218; that for RRIRHRPPRLPRPRPRPPKWPRP, 0.345.
The result for RRIRARPPRLPRPRPRPPDNPRP reads 0.576; that for RRIRVRPPRLPRPRPRPVNTPRP, -0.236.
With RRIRARPPRLPRPRPRPWQEPRP, the “shrunken log2 fold change” value is -0.0122.
To RRIRCRPPRLPRPRPRPKWLPRP belongs -0.0375; to RRIRPRPPRLPRPRPRPIATPRP, -0.159; to RRIRYRPPRLPRPRPRPLICPRP, -0.255.
For RRIRTRPPRLPRPRPRPLGYPRP, the “shrunken log2 fold change” value is -0.213.
The result for RRIRKRPPRLPRPRPRPFLHPRP reads -0.0903; that for RRIRRRPPRLPRPRPRPNHFPRP, -0.0507; that for RRIRKRPPRLPRPRPRPHNRPRP, -0.137.
Regarding RRIRARPPRLPRPRPRPPEQPRP, the “shrunken log2 fold change” value was determined as 0.941.
To RRIRPRPPRLPRPRPRPTFHPRP belongs 0.0667; to RRIRNRPPRLPRPRPRPPDSPRP, 0.0377; to RRIRVRPPRLPRPRPRPHNTPRP, -0.353.
To RRIRLRPPRLPRPRPRPEWEPRP belongs 0.0256; to RRIRQRPPRLPRPRPRPSWGPRP, -0.0627; to RRIRRRPPRLPRPRPRPDGCPRP, 0.165.
To RRIRTRPPRLPRPRPRPCTAPRP belongs -0.0896; to RRIRVRPPRLPRPRPRPTIPPRP, -0.0501.
As for RRIRARPPRLPRPRPRPLYHPRP, the “shrunken log2 fold change” value is 0.149.
The result for RRIRPRPPRLPRPRPRPPHHPRP reads 0.188; that for RRIRVRPPRLPRPRPRPQHIPRP, -0.32; that for RRIRWRPPRLPRPRPRPVYFPRP, -0.418.
The result for RRIRGRPPRLPRPRPRPDMIPRP reads 0.531; that for RRIRWRPPRLPRPRPRPHRHPRP, -0.131; that for RRIRMRPPRLPRPRPRPNGPPRP, 0.114.
On to RRIRTRPPRLPRPRPRPRDFPRP, for which the “shrunken log2 fold change” value amounted to 0.0849.
As to RRIRQRPPRLPRPRPRPHDQPRP, the “shrunken log2 fold change” value was 0.00277.
Take RRIRPRPPRLPRPRPRPIILPRP: the “shrunken log2 fold change” value was -0.0642.
Consider RRIRERPPRLPRPRPRPEWSPRP, for which the “shrunken log2 fold change” value came out at 0.0433.
The result for RRIRVRPPRLPRPRPRPNRLPRP reads 0.0105; that for RRIRNRPPRLPRPRPRPQAPPRP, 0.31.
The result for RRIRNRPPRLPRPRPRPWTRPRP reads -0.00821; that for RRIRDRPPRLPRPRPRPYWQPRP, -0.548.
With RRIRWRPPRLPRPRPRPTYRPRP, the “shrunken log2 fold change” value amounted to 0.146.
With RRIRKRPPRLPRPRPRPYRQPRP, the “shrunken log2 fold change” value was -0.122.
To RRIRVRPPRLPRPRPRPHYRPRP belongs -0.0502; to RRIRVRPPRLPRPRPRPPKWPRP, 0.133.
To RRIRMRPPRLPRPRPRPSDTPRP belongs 0.232; to RRIRLRPPRLPRPRPRPSKEPRP, -0.4.
For the sequence RRIRDRPPRLPRPRPRPFVPPRP, the “shrunken log2 fold change” value is -0.0913.
To RRIRFRPPRLPRPRPRPLMVPRP belongs -0.38.
On to RRIRRRPPRLPRPRPRPKPNPRP, for which the “shrunken log2 fold change” value is 0.531.
The result for RRIRMRPPRLPRPRPRPCNEPRP reads -0.249; that for RRIRVRPPRLPRPRPRPQVVPRP, -0.00557; that for RRIRGRPPRLPRPRPRPAIPPRP, -0.0508.
For the sequence RRIRGRPPRLPRPRPRPCQEPRP, the “shrunken log2 fold change” value was found to be 0.0738.
The result for RRIRTRPPRLPRPRPRPWPGPRP reads 0.0416.
On to RRIRDRPPRLPRPRPRPRYQPRP, for which the “shrunken log2 fold change” value is 0.204.
The result for RRIRMRPPRLPRPRPRPGQFPRP reads 0.0853.
For RRIRERPPRLPRPRPRPYMHPRP, the “shrunken log2 fold change” value was -0.232.
The result for RRIRVRPPRLPRPRPRPEDMPRP reads -0.115; that for RRIRGRPPRLPRPRPRPWRVPRP, 0.499.
In the case of RRIRSRPPRLPRPRPRPPWGPRP, the “shrunken log2 fold change” value is 0.317.
The result for RRIRMRPPRLPRPRPRPWVFPRP reads 0.152; that for RRIRVRPPRLPRPRPRPYPSPRP, -0.422.
To RRIRERPPRLPRPRPRPGGVPRP belongs 0.0164; to RRIRTRPPRLPRPRPRPIYMPRP, -0.442.
Consider RRIRMRPPRLPRPRPRPDWQPRP, for which the “shrunken log2 fold change” value turned out to be 0.198.
For the sequence RRIRQRPPRLPRPRPRPMGQPRP, the “shrunken log2 fold change” value stood at 0.0628.
Take RRIRARPPRLPRPRPRPSLWPRP: the “shrunken log2 fold change” value was determined as 0.974.
As to RRIRCRPPRLPRPRPRPVVVPRP, the “shrunken log2 fold change” value was -0.203.
To RRIRRRPPRLPRPRPRPTGIPRP belongs 0.872; to RRIRSRPPRLPRPRPRPFLLPRP, -0.411.
Consider RRIRKRPPRLPRPRPRPEGHPRP, for which the “shrunken log2 fold change” value was found to be 0.0594.
Take RRIRCRPPRLPRPRPRPHNQPRP: the “shrunken log2 fold change” value was -0.565.
To RRIRTRPPRLPRPRPRPWYSPRP belongs -0.818; to RRIRCRPPRLPRPRPRPFLTPRP, -0.565; to RRIRSRPPRLPRPRPRPVEYPRP, -0.553.
RRIRGRPPRLPRPRPRPDHHPRP: the “shrunken log2 fold change” value is -0.0187.
Take RRIRQRPPRLPRPRPRPNLCPRP: the “shrunken log2 fold change” value is -0.00174.
Take RRIRTRPPRLPRPRPRPGDCPRP: the “shrunken log2 fold change” value is -0.195.
